These are literature values, as cited in paper PMC4659487.

The target in this series is MurC (Escherichia coli) (UniProt P17952).

Consider MurC (from UniProt P17952), for which the Kd (as a rule, the equilibrium constant for the complex coming apart) was 1000 nM.
